Laboratory results reported in paper PMC5739758, “Human oncoprotein Musashi-2 N-terminal RNA recognition motif backbone assignment and identification of RNA-binding pocket”.

Experiments:
[1] = molecular target: T1, MSI2-RRM1 (human, UniProt Q96DH6 21-111); assay: NMR; 1H-15N HSQC titration, 1:1, slow exchange; TR-FRET at room temperature (FP per earlier publication; binding buffers not given; protein stored in 50 mM Tris-HCl pH 8.0, 500 mM NaCl); NMR 20 mM MES pH 6.0, 150 mM NaCl, 5% D2O, 298 K; conditions: protein: recombinant; tags: N-terminal His6 + TEV site (residues -3 to 20)
[2] = molecular target: T1, MSI2-RRM1; assay: TR-FRET; 2 nM RNA; TR-FRET at room temperature (FP per earlier publication; binding buffers not given; protein stored in 50 mM Tris-HCl pH 8.0, 500 mM NaCl); NMR 20 mM MES pH 6.0, 150 mM NaCl, 5% D2O, 298 K; conditions: protein: recombinant; tags: N-terminal His6 + TEV site (residues -3 to 20); label: 3' biotin
[3] = molecular target: T1, MSI2-RRM1; assay: TR-FRET; 2 nM RNA; no detectable binding in nM range; TR-FRET at room temperature (FP per earlier publication; binding buffers not given; protein stored in 50 mM Tris-HCl pH 8.0, 500 mM NaCl); NMR 20 mM MES pH 6.0, 150 mM NaCl, 5% D2O, 298 K; conditions: protein: recombinant; tags: N-terminal His6 + TEV site (residues -3 to 20); label: 3' biotin

T1 sequence (Q96DH6 21-111): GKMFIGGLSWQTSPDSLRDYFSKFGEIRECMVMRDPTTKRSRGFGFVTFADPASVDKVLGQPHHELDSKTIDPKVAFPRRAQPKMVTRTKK

B1: Numb5 (ssRNA)
RNA: GUAGU
binding result [1]: binds

B2: NumbBiotin (ssRNA)
RNA: UAGGUAGUAGUUUUA
Kd [2]: 2.07 nM

B3: Numb-mutBiotin (ssRNA)
RNA: UAGCAUCAUCAUUUA
binding result [3]: no binding
